# Experimental data: the supplement of paper PMC12764529
# ± gives the half width of the 95% confidence interval.
# Assay: folding stability dG unfold (combined trypsin and chymotrypsin); higher = more stable
# Procedure, shortened: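 Unfolding free energy was derived, per protease or combined, against a sequence-predicted unfolded-state K50 and a shared folded-state K50, starting from K50 inferred by Bayesian fitting of sequencing counts. Digestion with trypsin and chymotrypsin was carried out on designed mini-proteins under 80 residues without cysteine in a PA-tagged cDNA display construct. Only designs with AlphaFold2 dimer inter-PAE above 15 were kept.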
row,Sequence,folding stability dG unfold [kcal/mol]
1,SAGGSAGGWVEQTYMVPPDMPVNMIKNKLEPWGVEIDDVEPFPNGNSIVTITIPPEFLKDPDEKSAGGSAGG [r6_470_TrROS],-0.262 ± 0.51
2,SAGGSAGGSAGMLNTTVTVSIPTPEGKVETITIPPGVPLEEAKAKVAEPRPGAEITEIVRVSAGGSAGGSAG [r3_60_JUSTAS],0.165 ± 0.21
3,SAGGSAGGSAGGAPVTVIPVKKDNPEVREKTAKELKEKAKEIDPSNIKITIEKGVVTLESAGGSAGGSAGGS [r10_182_JUSTAS],-0.0644 ± 0.13
4,SAGGAPIPTVSTRTTPLPGGSSRTTTTTTYTFPETGTVYTATTTTTASPGGSPTTTATTTTTALAAASAGGS [r16_113_JUSTAS],-0.507 ± 0.23
5,SAPAVETRSVTTEPVASPTPRVPYTLVVESVTTTAVDAAGTPVATSVSLKEVRYGDGTISRTFSATPTASAG [r14_848_JUSTAS],< -1
6,SAGGEVPVSAEAAAAYDRAVAEGGGGATVPVETPGGRVIVYDPAGTATVLGDDPRTFPLAEVTAFAPSAGGS [r16_664_JUSTAS],0.246 ± 0.072
7,SAGGSAGGSAGGMYSVTLTPVSSPDGELRLRAVYPELGLVRDFDPATGRPVRVVPAALLSAGGSAGGSAGGS [r10_589_JUSTAS],-0.422 ± 0.26
8,SAPEIVVERFEDGSRRLGFTIPGYEVLEEVDVPANETEKTAVFTLPDRVLVFTFREEGIEPRPVPLDELSAG [r14_403_TrMRF],-0.598 ± 0.25
9,SSTTPYGDKTVVTTTTPVPGAGKELVTTTTYTFTPDPNSASTSTTATTTTTVTPLPEEAPTPEAVALRRASA [r9_363_JUSTAS],< -1
10,SAGGSAVGYYVETEIEKVEEKTYTFKPDGSPLKYFKNVKKNIKVKKVYVVKPTPDNSVIVDPNIPLSAGGSA [r15_162_JUSTAS],< -1
11,SAGGSAGGSAGGGPMLRYTLTFTLPDSTVTKEFSSEEEVEEAKEQLPEEYPVDPNVTVSPSAGGSAGGSAGG [r7_18_JUSTAS],-0.22 ± 0.32
12,SAGGSAGGSAGSAPAGALVTEEVSLEETETFFDPTTKKPLRTVRVTVPVKRERVVSPALPSAGGSAGGSAGG [r11_970_JUSTAS],< -1
13,SAGGSAGGSAGGAMPNDVKVTTTTFTGTETLTLTDASGTPTSSTKTVTTTRTSVFPDTTSAGGSAGGSAGGS [r10_1212_JUSTAS],0.311 ± 0.13
14,SAGGSAGGSAGSMPVTVTERVVTSETPLPTDELAVKTTVTYPDGTAADFTRLLPPDAPLESAGGSAGGSAGG [r11_429_JUSTAS],0.158 ± 0.18
15,SAGGNIKITDIEMEPMNMPRKNEDGKEKPRPMWQFKVRIRDDGKPIAEVPFTSMDDMRNAVKKLLKKSAGGS [r8_21_TrROS],-0.182 ± 0.39
16,SAGGKKEYKILITGKSIPSDGIVYLPNPNKVNIKSNNNYTYKTIPITIIADNNPEKAKKIAKELGLGSAGGS [r16_467_TrMRF],< -1
17,SAGGSAGGSAGMEMKLRPEPVVEVTPTVTTEPDPSLGTTVTTTTYTFDNGEVKTETDTGGSAGGSAGGSAGG [r11_463_JUSTAS],-0.441 ± 0.28
18,SAGGSAGGSAGGSWMRMEAEVRHPNKRDVTIPIPYRSKDGEPDMKERAKEFARELAKDYSAGGSAGGSAGGS [r4_168_TrROS],< -1
19,SAGMITLEKTVPLSEATPEKAKEIAEELLEKLKKEGLPEGLEKTSIEITELPGDELIVKVPTKIVSKESAGG [r19_87_JUSTAS],< -1
20,SAGGSAGGSAGGLIPPNQKIKIKEIEPPNNEMNIDLEYPDNGKKVEFPFDSPEQALDALSAGGSAGGSAGGS [r10_1038_TrROS],0.227 ± 0.14

# Assay: folding stability dG unfold from chymotrypsin proteolysis; higher = more stable
# Description: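 Folding stability of de novo designed mini-proteins (<80 aa, no Cys; designed by TrROS, TrMRF, ProteinMPNN and the joint model) was measured by cDNA display proteolysis with trypsin and chymotrypsin. Each protease was used at 11 concentrations in a threefold dilution series plus a no-protease condition. K50 was inferred by Bayesian fitting of sequencing counts, and dG unfold was derived against a sequence-predicted unfolded-state K50 (Tsuboyama et al. method). Sequences shown include variable-length N-terminal GS-type padding (SAGGSAGG...) inside a display construct carrying a PA tag. Rows were kept only if the AF2 dimer inter-PAE was >15, to exclude likely homo-oligomers.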
row,Sequence,folding stability dG unfold [kcal/mol]
1,SAGGSAGGWVEQTYMVPPDMPVNMIKNKLEPWGVEIDDVEPFPNGNSIVTITIPPEFLKDPDEKSAGGSAGG [r6_470_TrROS],0.574 ± 0.22
2,SAGGSAGGSAGMLNTTVTVSIPTPEGKVETITIPPGVPLEEAKAKVAEPRPGAEITEIVRVSAGGSAGGSAG [r3_60_JUSTAS],0.764 ± 0.044
3,SAGGSAGGSAGGAPVTVIPVKKDNPEVREKTAKELKEKAKEIDPSNIKITIEKGVVTLESAGGSAGGSAGGS [r10_182_JUSTAS],0.263 ± 0.049
4,SAGGAPIPTVSTRTTPLPGGSSRTTTTTTYTFPETGTVYTATTTTTASPGGSPTTTATTTTTALAAASAGGS [r16_113_JUSTAS],0.0663 ± 0.26
5,SAPAVETRSVTTEPVASPTPRVPYTLVVESVTTTAVDAAGTPVATSVSLKEVRYGDGTISRTFSATPTASAG [r14_848_JUSTAS],-0.953 ± 0.29
6,SAGGEVPVSAEAAAAYDRAVAEGGGGATVPVETPGGRVIVYDPAGTATVLGDDPRTFPLAEVTAFAPSAGGS [r16_664_JUSTAS],0.923 ± 0.059
7,SAGGSAGGSAGGMYSVTLTPVSSPDGELRLRAVYPELGLVRDFDPATGRPVRVVPAALLSAGGSAGGSAGGS [r10_589_JUSTAS],0.411 ± 0.22
8,SAPEIVVERFEDGSRRLGFTIPGYEVLEEVDVPANETEKTAVFTLPDRVLVFTFREEGIEPRPVPLDELSAG [r14_403_TrMRF],-0.201 ± 0.3
9,SSTTPYGDKTVVTTTTPVPGAGKELVTTTTYTFTPDPNSASTSTTATTTTTVTPLPEEAPTPEAVALRRASA [r9_363_JUSTAS],-0.937 ± 0.44
10,SAGGSAVGYYVETEIEKVEEKTYTFKPDGSPLKYFKNVKKNIKVKKVYVVKPTPDNSVIVDPNIPLSAGGSA [r15_162_JUSTAS],-0.618 ± 0.46
11,SAGGSAGGSAGGGPMLRYTLTFTLPDSTVTKEFSSEEEVEEAKEQLPEEYPVDPNVTVSPSAGGSAGGSAGG [r7_18_JUSTAS],-0.113 ± 0.43
12,SAGGSAGGSAGSAPAGALVTEEVSLEETETFFDPTTKKPLRTVRVTVPVKRERVVSPALPSAGGSAGGSAGG [r11_970_JUSTAS],-0.795 ± 0.69
13,SAGGSAGGSAGGAMPNDVKVTTTTFTGTETLTLTDASGTPTSSTKTVTTTRTSVFPDTTSAGGSAGGSAGGS [r10_1212_JUSTAS],0.733 ± 0.1
14,SAGGSAGGSAGSMPVTVTERVVTSETPLPTDELAVKTTVTYPDGTAADFTRLLPPDAPLESAGGSAGGSAGG [r11_429_JUSTAS],0.875 ± 0.042
15,SAGGNIKITDIEMEPMNMPRKNEDGKEKPRPMWQFKVRIRDDGKPIAEVPFTSMDDMRNAVKKLLKKSAGGS [r8_21_TrROS],-0.0964 ± 0.26
16,SAGGKKEYKILITGKSIPSDGIVYLPNPNKVNIKSNNNYTYKTIPITIIADNNPEKAKKIAKELGLGSAGGS [r16_467_TrMRF],0.232 ± 0.34
17,SAGGSAGGSAGMEMKLRPEPVVEVTPTVTTEPDPSLGTTVTTTTYTFDNGEVKTETDTGGSAGGSAGGSAGG [r11_463_JUSTAS],0.0371 ± 0.25
18,SAGGSAGGSAGGSWMRMEAEVRHPNKRDVTIPIPYRSKDGEPDMKERAKEFARELAKDYSAGGSAGGSAGGS [r4_168_TrROS],-0.315 ± 0.21
19,SAGMITLEKTVPLSEATPEKAKEIAEELLEKLKKEGLPEGLEKTSIEITELPGDELIVKVPTKIVSKESAGG [r19_87_JUSTAS],-0.556 ± 0.14
20,SAGGSAGGSAGGLIPPNQKIKIKEIEPPNNEMNIDLEYPDNGKKVEFPFDSPEQALDALSAGGSAGGSAGGS [r10_1038_TrROS],0.658 ± 0.049
